Experimental data reported in patent US20240116997A1.

Legend:
Test in all cases: cell-based or functional assay
[1] = biological target: IL-18 WT (native sequence, SEQ ID NO: 1) (human) (UniProt Q14116)
[2] = biological target: C153 (V11I, D37A, C38A, K53A, C76A, C127A) (human) (UniProt Q14116)
[3] = biological target: IL-18 polypeptide SEQ ID NO: 54 (E06K, K53A, C38S, C68S, C76S, C127S, K70C) (human) (UniProt Q14116)
[4] = biological target: C143 (V11I, C38A, K53A, C76A, C127A) (human) (UniProt Q14116)
[5] = biological target: IL-18 polypeptide SEQ ID NO: 38 (E06K) (human) (UniProt Q14116)
[6] = biological target: C166 (V11I, C38A, S55T, C76A, C127A) (human) (UniProt Q14116)
[7] = biological target: C156 (V11I, C38A, N41A, K53A, C76A, C127A) (human) (UniProt Q14116)
[8] = biological target: IL-18 polypeptide SEQ ID NO: 35 (Y01G, F02A, E06K, M51G, K53A, D54A, S55A, T63A) (human) (UniProt Q14116)
[9] = biological target: C147 (V11I, C38A, K53A, D54A, C76A, C127A) (human) (UniProt Q14116)
[10] = biological target: C162 (K8E, V11I, C38A, C76A, Q103R, C127A) (human) (UniProt Q14116)
[11] = biological target: IL-18 polypeptide SEQ ID NO: 9 (E6K, C38A, K53A, C68A, D98C) (human) (UniProt Q14116)
[12] = biological target: IL-18 polypeptide SEQ ID NO: 57 (E6K, C38S, K53A) (human) (UniProt Q14116)
[13] = biological target: C158 (V11I, C38A, K53A, C76A, G108A, C127A) (human) (UniProt Q14116)
[14] = biological target: IL-18 polypeptide SEQ ID NO: 59 (E6K, C38A, K53A) (human) (UniProt Q14116)
[15] = biological target: C145 (V11I, C38A, K53A, S55A, C76A, C127A) (human) (UniProt Q14116)
[16] = biological target: C164 (V11I, C38A, S55H, C76A, C127A) (human) (UniProt Q14116)
[17] = biological target: IL-18 polypeptide SEQ ID NO: 40 (E06K, S55A) (human) (UniProt Q14116)
[18] = biological target: C159 (V11I, C38A, K53A, C76A, H109A, C127A) (human) (UniProt Q14116)
[19] = biological target: IL-18 polypeptide SEQ ID NO: 34 (E06K, K53A, S55A) (human) (UniProt Q14116)
[20] = biological target: C148 (F2A, V11I, C38A, K53A, C76A, C127A) (human) (UniProt Q14116)
[21] = biological target: C149 (V11I, E31A, C38A, K53A, C76A, C127A) (human) (UniProt Q14116)
C149 (V11I, E31A, C38A, K53A, C76A, C127A) (human), sequence (Q14116 37-193 V47I/E67A/C74A/K89A/C112A/C163A): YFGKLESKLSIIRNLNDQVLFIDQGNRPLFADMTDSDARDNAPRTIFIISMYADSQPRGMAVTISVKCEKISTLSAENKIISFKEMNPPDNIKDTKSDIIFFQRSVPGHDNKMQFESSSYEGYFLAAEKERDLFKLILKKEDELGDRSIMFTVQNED

IL-18 polypeptide SEQ ID NO: 54 (E06K, K53A, C38S, C68S, C76S, C127S, K70C) (human), sequence (Q14116 37-193 E42K/C74S/K89A/C104S/K106C/C112S/C163S): as the sequence (Q14116 37-193 V47I/E67A/C74A/K89A/C112A/C163A) above, with E6K, I11V, A31E, A38S, C68S, K70C, A76S, A127S counted along it
IL-18 polypeptide SEQ ID NO: 9 (E6K, C38A, K53A, C68A, D98C) (human), sequence (Q14116 other isoform, or with tags, fused parts or gaps C38A K53A C68A D98C C38A K53A C68A D98C): as the sequence (Q14116 37-193 V47I/E67A/C74A/K89A/C112A/C163A) above, with E6K, I11V, A31E, C68A, A76C, D98C, A127C counted along it
IL-18 polypeptide SEQ ID NO: 34 (E06K, K53A, S55A) (human), sequence (Q14116 37-193 E42K/K89A/S91A): as the sequence (Q14116 37-193 V47I/E67A/C74A/K89A/C112A/C163A) above, with E6K, I11V, A31E, A38C, S55A, A76C, A127C counted along it
C159 (V11I, C38A, K53A, C76A, H109A, C127A) (human), sequence (Q14116 37-193 V47I/C74A/K89A/C112A/H145A/C163A): as the sequence (Q14116 37-193 V47I/E67A/C74A/K89A/C112A/C163A) above, with A31E, H109A counted along it
C164 (V11I, C38A, S55H, C76A, C127A) (human), sequence (Q14116 37-193 V47I/C74A/S91H/C112A/C163A): as the sequence (Q14116 37-193 V47I/E67A/C74A/K89A/C112A/C163A) above, with A31E, A53K, S55H counted along it
IL-18 polypeptide SEQ ID NO: 57 (E6K, C38S, K53A) (human), sequence (Q14116 other isoform, or with tags, fused parts or gaps C38S K53A C38S K53A): as the sequence (Q14116 37-193 V47I/E67A/C74A/K89A/C112A/C163A) above, with E6K, I11V, A31E, A38S, A76C, A127C counted along it
IL-18 polypeptide SEQ ID NO: 35 (Y01G, F02A, E06K, M51G, K53A, D54A, S55A, T63A) (human), sequence (Q14116 37-193 Y37G/F38A/E42K/M87G/K89A/D90A/S91A/T99A): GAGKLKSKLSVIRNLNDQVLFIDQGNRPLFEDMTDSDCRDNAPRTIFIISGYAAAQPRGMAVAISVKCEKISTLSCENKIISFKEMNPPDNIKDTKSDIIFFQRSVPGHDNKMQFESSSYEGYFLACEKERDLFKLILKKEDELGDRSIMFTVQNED
C158 (V11I, C38A, K53A, C76A, G108A, C127A) (human), sequence (Q14116 37-193 V47I/C74A/K89A/C112A/G144A/C163A): as the sequence (Q14116 37-193 V47I/E67A/C74A/K89A/C112A/C163A) above, with A31E, G108A counted along it
IL-18 polypeptide SEQ ID NO: 38 (E06K) (human), sequence (Q14116 37-193 E42K): as the sequence (Q14116 37-193 Y37G/F38A/E42K/M87G/K89A/D90A/S91A/T99A) above, with G1Y, A2F, G51M, A53K, A54D, A55S, A63T counted along it
C162 (K8E, V11I, C38A, C76A, Q103R, C127A) (human), sequence (Q14116 other isoform, or with tags, fused parts or gaps V11I C38A C76A Q103R C127A V11I C38A C76A Q103R C127A): as the sequence (Q14116 37-193 V47I/E67A/C74A/K89A/C112A/C163A) above, with K8E, A31E, A53K, Q103R counted along it
C143 (V11I, C38A, K53A, C76A, C127A) (human), sequence (Q14116 37-193 V47I/C74A/K89A/C112A/C163A): as the sequence (Q14116 37-193 V47I/E67A/C74A/K89A/C112A/C163A) above, with A31E counted along it
C166 (V11I, C38A, S55T, C76A, C127A) (human), sequence (Q14116 37-193 V47I/C74A/S91T/C112A/C163A): as the sequence (Q14116 37-193 V47I/E67A/C74A/K89A/C112A/C163A) above, with A31E, A53K, S55T counted along it
IL-18 polypeptide SEQ ID NO: 59 (E6K, C38A, K53A) (human), sequence (Q14116 other isoform, or with tags, fused parts or gaps C38A K53A C38A K53A): as the sequence (Q14116 37-193 V47I/E67A/C74A/K89A/C112A/C163A) above, with E6K, I11V, A31E, A76C, A127C counted along it
IL-18 WT (native sequence, SEQ ID NO: 1) (human), sequence (Q14116 37-193): as the sequence (Q14116 37-193 V47I/E67A/C74A/K89A/C112A/C163A) above, with I11V, A31E, A38C, A53K, A76C, A127C counted along it
C147 (V11I, C38A, K53A, D54A, C76A, C127A) (human), sequence (Q14116 37-193 V47I/C74A/K89A/D90A/C112A/C163A): as the sequence (Q14116 37-193 V47I/E67A/C74A/K89A/C112A/C163A) above, with A31E, D54A counted along it
C156 (V11I, C38A, N41A, K53A, C76A, C127A) (human), sequence (Q14116 37-193 V47I/C74A/N77A/K89A/C112A/C163A): as the sequence (Q14116 37-193 V47I/E67A/C74A/K89A/C112A/C163A) above, with A31E, N41A counted along it
C153 (V11I, D37A, C38A, K53A, C76A, C127A) (human), sequence (Q14116 37-193 V47I/D73A/C74A/K89A/C112A/C163A): as the sequence (Q14116 37-193 V47I/E67A/C74A/K89A/C112A/C163A) above, with A31E, D37A counted along it
C148 (F2A, V11I, C38A, K53A, C76A, C127A) (human), sequence (Q14116 other isoform, or with tags, fused parts or gaps V11I C38A K53A C76A C127A V11I C38A K53A C76A C127A): as the sequence (Q14116 37-193 V47I/E67A/C74A/K89A/C112A/C163A) above, with F2A, A31E counted along it
IL-18 polypeptide SEQ ID NO: 40 (E06K, S55A) (human), sequence (Q14116 37-193 E42K/S91A): as the sequence (Q14116 37-193 Y37G/F38A/E42K/M87G/K89A/D90A/S91A/T99A) above, with G1Y, A2F, G51M, A53K, A54D, A63T counted along it
C145 (V11I, C38A, K53A, S55A, C76A, C127A) (human), sequence (Q14116 37-193 V47I/C74A/K89A/S91A/C112A/C163A): as the sequence (Q14116 37-193 V47I/E67A/C74A/K89A/C112A/C163A) above, with A31E, S55A counted along it

## Fc-fused human IL-18 binding protein isoform a (IL-18BPa) (from UniProt O95998 31-194) (Fc fusion)
[1]
  IC50 (nM), IL-18BPa inhibition of IFNγ induction, NK-92 cells: 1.47 nM
[2]
  IC50 (nM), IL-18BPa inhibition of IFNγ induction, NK-92 cells: 3.71 nM
[3]
  IC50 (nM), IL-18BPa inhibition of IFNγ induction, NK-92 cells: 23.5 nM
[4]
  IC50 (nM), IL-18BPa inhibition of IFNγ induction, NK-92 cells: 7.52 nM
[5]
  IC50 (nM), IL-18BPa inhibition of IFNγ induction, NK-92 cells: 7.79 nM
[6]
  IC50 (nM), IL-18BPa inhibition of IFNγ induction, NK-92 cells: 0.809 nM
[7]
  IC50 (nM), IL-18BPa inhibition of IFNγ induction, NK-92 cells: 6.08 nM
[8]
  IC50 (nM), IL-18BPa inhibition of IFNγ induction, NK-92 cells: > 55 nM
[9]
  IC50 (nM), IL-18BPa inhibition of IFNγ induction, NK-92 cells: 5.05 nM
[10]
  IC50 (nM), IL-18BPa inhibition of IFNγ induction, NK-92 cells: 0.823 nM
[11]
  IC50 (nM), IL-18BPa inhibition of IFNγ induction, NK-92 cells: 961 nM
[12]
  IC50 (nM), IL-18BPa inhibition of IFNγ induction, NK-92 cells: 1.62 nM
[13]
  IC50 (nM), IL-18BPa inhibition of IFNγ induction, NK-92 cells: 1.81 nM
[14]
  IC50 (nM), IL-18BPa inhibition of IFNγ induction, NK-92 cells: 146 nM
[15]
  IC50 (nM), IL-18BPa inhibition of IFNγ induction, NK-92 cells: 733 nM
[16]
  IC50 (nM), IL-18BPa inhibition of IFNγ induction, NK-92 cells: 0.885 nM
[17]
  IC50 (nM), IL-18BPa inhibition of IFNγ induction, NK-92 cells: 15 nM
[18]
  IC50 (nM), IL-18BPa inhibition of IFNγ induction, NK-92 cells: 3.18 nM
[19]
  IC50 (nM), IL-18BPa inhibition of IFNγ induction, NK-92 cells: 229 nM
[20]
  IC50 (nM), IL-18BPa inhibition of IFNγ induction, NK-92 cells: 1.17 nM
[21]
  IC50 (nM), IL-18BPa inhibition of IFNγ induction, NK-92 cells: 21.3 nM
